pKd: −log10 of the molar value.

Data set [1] relates to AtEndoV (WT) (Arabidopsis thaliana). Kind of data set: SPR. As to conditions: SPR (ProteOn XPR36, NLC chip): PBS, 0.005% Tween 20, pH 7.4, 1 mM EDTA, no divalent metal, 25 C, protein 31.25-500 nM.
The test system of data set [2] is AtEndoV (Y100A) (Arabidopsis thaliana). Kind of data set: SPR. As to conditions: SPR (ProteOn XPR36, NLC chip): PBS, 0.005% Tween 20, pH 7.4, 1 mM EDTA, no divalent metal, 25 C, protein 31.25-500 nM.
The mark [3] stands for this setting: N at position 11 = deoxyinosine.

“CTGTATGATGNAGATGCTGAC [ssDNA(dI) 21-mer]”: the pKd in data set [1] (setting [3]) is 3.66; in data set [2] (setting [3]), 3.80.

For the sequence CUGUAUGAUGNAGAUGCUGAC [ssRNA(I) 21-mer], the pKd is 8.70 in data set [1] (N at position 11 = inosine) and 6.92 in data set [2] (N at position 11 = inosine).

The term pKd denotes −log10 of the Kd, conventionally taken in molar units.

For the origin of these results see paper PMC8526164.
